Positions count from the first letter of the chain named. In names and notes the source's numbering stands.
B1: target 1 insU 3' of 18,insA 3' of 11 (mixed)
RNA 1: CACCCGUGCAAAAAUGCAGGGGUCUAAAACUGAGCGGAUAACCUCUCUAUGG
RNA 2: GGGAAUGGAUCCACAUCUACGAAUUCGUACCAUAUGAGAGGUAUAUCCGCUCACCGAGAUCGGAAGAGCACACGU
B2: target 1 C7U,G17A (mixed)
RNA 1: B1 RNA 1
RNA 2: GGGAAUGGAUCCACAUCUACGAAUUCGUACCAUAAAGAGGUUAUUCGCUCACCGAGAUCGGAAGAGCACACGU
B3: target 1 insA 3' of 19,insC 3' of 8 (mixed)
RNA 1: B1 RNA 1
RNA 2: B1 RNA 2 with U35A, A43U, U44A, A45U, U46C
B4: target 1 C4G,C6U (mixed)
RNA 1: B1 RNA 1
RNA 2: B2 RNA 2 with A35G, U45C, C46U, C48G
B5: target 1 G5C,U11G (mixed)
RNA 1: B1 RNA 1
RNA 2: B2 RNA 2 with A35G, U41G, U45C, G47C
B6: target 1 insA 3' of 6,insA 3' of 6 (mixed)
RNA 1: B1 RNA 1
RNA 2: GGGAAUGGAUCCACAUCUACGAAUUCGUACCAUAGAGAGGUUAUCCAAGCUCACCGAGAUCGGAAGAGCACACGU
B7: target 1 insA 3' of 10,insA 3' of 8 (mixed)
RNA 1: B1 RNA 1
RNA 2: B6 RNA 2 with U44A, C45U, C46A, A47C, A48C
B8: target 1 C7A,G17A (mixed)
RNA 1: B1 RNA 1
RNA 2: B2 RNA 2 with U45A
B9: target 1 insU 3' of 18,insG 3' of 6 (mixed)
RNA 1: B1 RNA 1
RNA 2: B1 RNA 2 with A43U, U44A, A45U, U46C, C48G
B10: target 1 insA 3' of 17,insA 3' of 13 (mixed)
RNA 1: B1 RNA 1
RNA 2: B1 RNA 2 with U35G, G36A, G41A, U42G, A43U
B11: target 1 insC 3' of 22,insC 3' of 19 (mixed)
RNA 1: B1 RNA 1
RNA 2: GGGAAUGGAUCCACAUCUACGAAUUCGUACCCAUCAGAGAGGUUAUCCGCUCACCGAGAUCGGAAGAGCACACGU
B12: target 1 insC 3' of 5,insU 3' of 4 (mixed)
RNA 1: B1 RNA 1
RNA 2: B6 RNA 2 with A47G, A48C, G49C, C50U
B13: target 1 del7,del18 (mixed)
RNA 1: B1 RNA 1
RNA 2: GGGAAUGGAUCCACAUCUACGAAUUCGUACCAUGAGAGGUUAUCGCUCACCGAGAUCGGAAGAGCACACGU
B14: target 1 U19G,C22U (mixed)
RNA 1: B1 RNA 1
RNA 2: B2 RNA 2 with C30U, U33G, A35G, U45C
B15: target 1 G15U (mixed)
RNA 1: B1 RNA 1
RNA 2: B2 RNA 2 with A35G, G37U, U45C
B16: target 1 insC 3' of 11,insA 3' of 3 (mixed)
RNA 1: B1 RNA 1
RNA 2: B6 RNA 2 with U42C, A43U, U44A, C45U, A47C, A48G, G49C, C50U, U51A
B17: target 1 insU 3' of 20,insA 3' of 11 (mixed)
RNA 1: B1 RNA 1
RNA 2: B1 RNA 2 with A34U, U35A
B18: target 1 A1G,G15U (mixed)
RNA 1: B1 RNA 1
RNA 2: B2 RNA 2 with A35G, G37U, U45C, A51G
B19: target 1 A18U,U19A (mixed)
RNA 1: B1 RNA 1
RNA 2: B2 RNA 2 with U33A, A34U, A35G, U45C
B20: target 1 insA 3' of 4,insG 3' of 1 (mixed)
RNA 1: B1 RNA 1
RNA 2: B6 RNA 2 with A47G, A48C, G49A, C50U, U51C, C52A, A53G
B21: target 1 G15C (mixed)
RNA 1: B1 RNA 1
RNA 2: B2 RNA 2 with A35G, G37C, U45C
B22: target 1 A16G,C22U (mixed)
RNA 1: B1 RNA 1
RNA 2: B2 RNA 2 with C30U, A35G, A36G, U45C
B23: target 1 insU 3' of 12,insU 3' of 7 (mixed)
RNA 1: B1 RNA 1
RNA 2: B6 RNA 2 with A43U, U44A, C45U, A47U, A48C
B24: target 1 C4G,U11A (mixed)
RNA 1: B1 RNA 1
RNA 2: B2 RNA 2 with A35G, U41A, U45C, C48G
B25: target 1 A9G,G12C (mixed)
RNA 1: B1 RNA 1
RNA 2: B2 RNA 2 with A35G, G40C, A43G, U45C
B26: target 1 insC 3' of 12,insU 3' of 12 (mixed)
RNA 1: B1 RNA 1
RNA 2: B6 RNA 2 with U41C, A43U, C45A, C46U, A47C, A48C
B27: target 1 insG 3' of 18,insG 3' of 11 (mixed)
RNA 1: B1 RNA 1
RNA 2: B1 RNA 2 with U35G, A43G
B28: target 1 insC 3' of 13,insU 3' of 4 (mixed)
RNA 1: B1 RNA 1
RNA 2: B6 RNA 2 with G40C, U41G, A43U, U44A, C45U, A47C, A48G, G49C, C50U
B29: target 1 del4,del15 (mixed)
RNA 1: B1 RNA 1
RNA 2: B13 RNA 2 with G34A, A35G, G36A, G45C, C46G
B30: target 1 A9G,A14U (mixed)
RNA 1: B1 RNA 1
RNA 2: B2 RNA 2 with A35G, A38U, A43G, U45C
B31: target 1 insU 3' of 21,insC 3' of 18 (mixed)
RNA 1: B1 RNA 1
RNA 2: B11 RNA 2 with C32U, C35A, A36C
B32: target 1 C4A,U19A (mixed)
RNA 1: B1 RNA 1
RNA 2: B2 RNA 2 with U33A, A35G, U45C, C48A
B33: target 1 insG 3' of 19,insC 3' of 13 (mixed)
RNA 1: B1 RNA 1
RNA 2: B1 RNA 2 with A34G, U35A, G41C, U42G, A43U
B34: target 1 insC 3' of 19,insU 3' of 12 (mixed)
RNA 1: B1 RNA 1
RNA 2: B1 RNA 2 with A34C, U35A, A43U

The binders below were run against T1, EsCas13d, nuclease-dead (Eubacterium siraeum, UniProt B0MS50, R295A;H300A;R849A;H854A) (assay: crRNA (strand 1, pre-loaded); Mg2+; 40 mM Tris-HCl pH 7.5, 150 mM NaCl, 6 mM MgCl2, 1 mM DTT, 0.1% Tween-20, 0.2 mg/ml BSA; 25 C; 10 min per concentration, then washed). Settings: tags: His6-TwinStrep-SUMO cleaved; N-terminal SNAP kept (SNAP-Surface 488); label: 3' end held by stalled T7 RNA polymerase.
T1 sequence: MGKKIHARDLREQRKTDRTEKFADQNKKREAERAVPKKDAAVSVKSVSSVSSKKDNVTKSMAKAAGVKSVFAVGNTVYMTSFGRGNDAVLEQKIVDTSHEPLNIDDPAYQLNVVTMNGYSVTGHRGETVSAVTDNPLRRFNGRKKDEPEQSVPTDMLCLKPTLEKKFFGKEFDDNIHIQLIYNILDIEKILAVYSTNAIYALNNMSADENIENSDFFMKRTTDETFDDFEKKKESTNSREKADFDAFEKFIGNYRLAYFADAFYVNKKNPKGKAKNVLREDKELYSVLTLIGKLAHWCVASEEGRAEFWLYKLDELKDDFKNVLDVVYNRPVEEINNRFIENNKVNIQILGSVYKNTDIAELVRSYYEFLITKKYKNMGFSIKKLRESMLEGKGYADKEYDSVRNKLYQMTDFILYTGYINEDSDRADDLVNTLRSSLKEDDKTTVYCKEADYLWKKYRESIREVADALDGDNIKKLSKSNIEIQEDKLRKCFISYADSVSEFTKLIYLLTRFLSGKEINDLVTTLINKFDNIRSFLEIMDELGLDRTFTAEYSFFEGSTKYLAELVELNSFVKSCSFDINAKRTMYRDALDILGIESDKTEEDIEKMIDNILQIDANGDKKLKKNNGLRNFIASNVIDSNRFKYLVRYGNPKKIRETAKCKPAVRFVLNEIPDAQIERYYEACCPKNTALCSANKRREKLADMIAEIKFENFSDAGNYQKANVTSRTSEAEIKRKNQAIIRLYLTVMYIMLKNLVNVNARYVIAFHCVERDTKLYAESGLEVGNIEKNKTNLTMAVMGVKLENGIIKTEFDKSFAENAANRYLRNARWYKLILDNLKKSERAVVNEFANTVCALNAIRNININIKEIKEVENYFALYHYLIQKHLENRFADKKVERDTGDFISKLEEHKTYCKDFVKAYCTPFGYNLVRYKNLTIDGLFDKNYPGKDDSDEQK

Row | Binder | Kd
1 | B1 | 0.068 ± 0.006 µM
2 | B2 | 0.034 ± 0.004 µM
3 | B3 | 0.034 ± 0.004 µM
4 | B4 | 0.00383 ± 0.0002 µM
5 | B5 | 0.037 ± 0.005 µM
6 | B6 | 0.0174 ± 0.0009 µM
7 | B7 | 0.0113 ± 0.0004 µM
8 | B8 | 0.051 ± 0.005 µM
9 | B9 | 0.0332 ± 0.0029 µM
10 | B10 | 0.01 ± 0.0007 µM
11 | B11 | ~0.07 µM
12 | B12 | 0.0157 ± 0.0013 µM
13 | B13 | 0.058 ± 0.006 µM
14 | B14 | 0.074 ± 0.016 µM
15 | B15 | 0.0186 ± 0.0011 µM
16 | B16 | 0.0274 ± 0.002 µM
17 | B17 | 0.0296 ± 0.0026 µM

Row | Binder | Kd
18 | B18 | 0.023 ± 0.004 µM
19 | B19 | 0.042 ± 0.007 µM
20 | B20 | 0.0052 ± 0.0004 µM
21 | B21 | 0.0472 ± 0.0034 µM
22 | B22 | 0.054 ± 0.012 µM
23 | B23 | 0.0162 ± 0.0006 µM
24 | B24 | 0.009 ± 0.001 µM
25 | B25 | 0.0097 ± 0.0004 µM
26 | B26 | 0.0102 ± 0.0008 µM
27 | B27 | 0.092 ± 0.024 µM
28 | B28 | 0.0081 ± 0.0004 µM
29 | B29 | 0.056 ± 0.013 µM
30 | B30 | 0.065 ± 0.018 µM
31 | B31 | 0.052 ± 0.006 µM
32 | B32 | 0.068 ± 0.015 µM
33 | B33 | 0.068 ± 0.012 µM
34 | B34 | 0.0306 ± 0.0032 µM

— PMC10786891, “Massively parallel profiling of RNA-targeting CRISPR-Cas13d”
